Test results reported in article PMC12416549 (2024).
Numbering of substitutions follows the chain as printed. Names and notes keep the numbering of the source. Values belong to the binder of their own block, whether it stands above or below them.

Molecular target: T1, TNFR1 (Homo sapiens, UniProt P19438)
T1 chain: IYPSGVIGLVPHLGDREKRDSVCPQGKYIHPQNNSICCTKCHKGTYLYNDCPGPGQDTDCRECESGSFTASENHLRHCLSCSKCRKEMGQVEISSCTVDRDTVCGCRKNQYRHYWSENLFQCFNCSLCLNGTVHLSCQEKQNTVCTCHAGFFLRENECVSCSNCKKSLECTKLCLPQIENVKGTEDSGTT
Assay: yeast display SC50

B2: S47E (designed binder)
chain: MTLQELLREEALRRAEAEAFRYALELLAEKFPEQKEYLLDLAEEIEEQIRSLSGVDVEDVRKFLDKEWAWVKELLAEHPAELAEVEAARAARLAELRAEVEAKVAA
- apparent Kd (screen): 0.49 nM

B4: R13L (designed binder)
chain: B2 chain with R13L, E47S
- apparent Kd (screen): 0.49 nM

B5: L27T (designed binder)
chain: B2 chain with L27T, E47S
- apparent Kd (screen): 0.539 nM

B6: Q4N (designed binder)
chain: B2 chain with Q4N, E47S
- apparent Kd (screen): 0.405 nM

B7: E33L (designed binder)
chain: B2 chain with E33L, E47S
- apparent Kd (screen): 0.653 nM

B8: V57L (designed binder)
chain: B2 chain with E47S, V57L
- apparent Kd (screen): 0.539 nM

B11: A11Q (designed binder)
chain: B2 chain with A11Q, E47S
- apparent Kd (screen): 0.79 nM

B12: L39A (designed binder)
chain: B2 chain with L39A, E47S
- apparent Kd (screen): 2.05 nM

B13: R14M (designed binder)
chain: B2 chain with R14M, E47S
- apparent Kd (screen): 0.718 nM

B14: E36K (designed binder)
chain: B2 chain with E36K, E47S
- apparent Kd (screen): 3.99 nM

B16: R8F (designed binder)
chain: B2 chain with R8F, E47S
- apparent Kd (screen): 0.49 nM

B18: R50E (designed binder)
chain: B2 chain with E47S, R50E
- apparent Kd (screen): 0.446 nM

B20: E5S (designed binder)
chain: B2 chain with E5S, E47S
- apparent Kd (screen): 0.49 nM

B24: E44H (designed binder)
chain: B2 chain with E44H, E47S
- apparent Kd (screen): 2.05 nM

B26: E29L (designed binder)
chain: B2 chain with E29L, E47S
- apparent Kd (screen): 0.539 nM

B29: A15Y (designed binder)
chain: B2 chain with A15Y, E47S
- apparent Kd (screen): 0.539 nM

B30: P32Q (designed binder)
chain: B2 chain with P32Q, E47S
- apparent Kd (screen): 0.593 nM

B34: A23T (designed binder)
chain: B2 chain with A23T, E47S
- apparent Kd (screen): 0.539 nM

B35: K35W (designed binder)
chain: B2 chain with K35W, E47S
- apparent Kd (screen): 0.593 nM

B36: L26A (designed binder)
chain: B2 chain with L26A, E47S
- apparent Kd (screen): 0.718 nM

B37: A42C (designed binder)
chain: B2 chain with A42C, E47S
- apparent Kd (screen): 1.05 nM

B38: R8K (designed binder)
chain: B2 chain with R8K, E47S
- apparent Kd (screen): 0.539 nM

B39: D59L (designed binder)
chain: B2 chain with E47S, D59L
- apparent Kd (screen): 0.718 nM

B41: I49R (designed binder)
chain: B2 chain with E47S, I49R
- apparent Kd (screen): 0.593 nM

B45: E36A (designed binder)
chain: B2 chain with E36A, E47S
- apparent Kd (screen): 0.49 nM

B46: R50M (designed binder)
chain: B2 chain with E47S, R50M
- apparent Kd (screen): 0.593 nM

B48: E46Y (designed binder)
chain: B2 chain with E46Y, E47S
- apparent Kd (screen): 0.539 nM

B49: L38Y (designed binder)
chain: B2 chain with L38Y, E47S
- apparent Kd (screen): 0.79 nM

B50: L7G (designed binder)
chain: B2 chain with L7G, E47S
- apparent Kd (screen): 16.7 nM

B51: D56H (designed binder)
chain: B2 chain with E47S, D56H
- apparent Kd (screen): 1.86 nM

B53: E25I (designed binder)
chain: B2 chain with E25I, E47S
- apparent Kd (screen): 0.869 nM

B54: K30Y (designed binder)
chain: B2 chain with K30Y, E47S
- apparent Kd (screen): 0.539 nM

B55: E46C (designed binder)
chain: B2 chain with E46C, E47S
- apparent Kd (screen): 0.304 nM

B58: R50Y (designed binder)
chain: B2 chain with E47S, R50Y
- apparent Kd (screen): 0.539 nM

B59: E46F (designed binder)
chain: B2 chain with E46F, E47S
- apparent Kd (screen): 0.49 nM

The remaining lines, values ahead:

- apparent Kd (screen): 0.869 nM
B1: A69H (designed binder)
chain: B2 chain with E47S, A69H

- apparent Kd (screen): 0.49 nM
B3: V100T (designed binder)
chain: B2 chain with E47S, V100T

- apparent Kd (screen): 0.79 nM
B9: R89A (designed binder)
chain: B2 chain with E47S, R89A

- apparent Kd (screen): 0.718 nM
B10: L75Y (designed binder)
chain: B2 chain with E47S, L75Y

- apparent Kd (screen): 0.49 nM
B15: K72S (designed binder)
chain: B2 chain with E47S, K72S

- apparent Kd (screen): 1.05 nM
B17: R89G (designed binder)
chain: B2 chain with E47S, R89G

- apparent Kd (screen): 0.189 nM
B19: L74W (designed binder)
chain: B2 chain with E47S, L74W

- apparent Kd (screen): 13.8 nM
B21: E67G (designed binder)
chain: B2 chain with E47S, E67G

- apparent Kd (screen): 0.718 nM
B22: A90R (designed binder)
chain: B2 chain with E47S, A90R

- apparent Kd (screen): 1.27 nM
B23: V60H (designed binder)
chain: B2 chain with E47S, V60H

- apparent Kd (screen): 0.539 nM
B25: R97N (designed binder)
chain: B2 chain with E47S, R97N

- apparent Kd (screen): 0.539 nM
B27: L75D (designed binder)
chain: B2 chain with E47S, L75D

- apparent Kd (screen): 0.956 nM
B28: L96R (designed binder)
chain: B2 chain with E47S, L96R

- apparent Kd (screen): 0.49 nM
B31: A88E (designed binder)
chain: B2 chain with E47S, A88E

- apparent Kd (screen): 0.539 nM
B32: D59M (designed binder)
chain: B2 chain with E47S, D59M

- apparent Kd (screen): 0.869 nM
B33: E86Q (designed binder)
chain: B2 chain with E47S, E86Q

- apparent Kd (screen): 0.49 nM
B40: L96P (designed binder)
chain: B2 chain with E47S, L96P

- apparent Kd (screen): 0.593 nM
B42: K62F (designed binder)
chain: B2 chain with E47S, K62F

- apparent Kd (screen): 0.956 nM
B43: A87T (designed binder)
chain: B2 chain with E47S, A87T

- apparent Kd (screen): 0.446 nM
B44: E95L (designed binder)
chain: B2 chain with E47S, E95L

- apparent Kd (screen): 0.79 nM
B47: V85A (designed binder)
chain: B2 chain with E47S, V85A

- apparent Kd (screen): 1.4 nM
B52: W68A (designed binder)
chain: B2 chain with E47S, W68A

- apparent Kd (screen): 0.49 nM
B56: A80Q (designed binder)
chain: B2 chain with E47S, A80Q

- apparent Kd (screen): 0.869 nM
B57: F63T (designed binder)
chain: B2 chain with E47S, F63T
